{"source": "the DeepSol protein solubility set"}
{"assay": "soluble on expression in E. coli; label from the status in PepcDB or PDB records"}
{"sequence": "MAHHHHHHMAEPNASGFRVIQILENYGVASSDIKKLMECGFYTVESAAYAPKKAILAVKGISENKAEKIMAECAKLVPMGFTSAVAYHEARKEIIMVTTGSREVDKLLGGGIETGSITELFGEFRTGKTQLCHTLCVTCQLPISQGGAEGMALYIDTEGTFRPERLVAVAERYKLDPEDVLANVACARAFNTDHQQQLLLQASAMMAENRFALIIVDSATALYRTDYSGRNELAARQMHLGKFLRSLHNLAEEYGVAVVVTNQVVANVDGSAQMFQADSKKPIGGHIMAHASTTRLSLRKGRGEQRIIKVYDSPCLAEAEAIFGIYDDGVGDARD", "soluble on expression in E. coli": "not soluble"}
{"sequence": "YHTEKTLPERTNEAAMSAAVVRGKLVWEQNNCVGCHTLLGEGAYFAPELGNVVGRRGGEEGFNTFLQAWMNIQPLNVPGRRAMPQFHLSEGQVDDLAEFLKWSSKIDTNQWPPNKEG", "soluble on expression in E. coli": "not soluble"}
{"sequence": "MYGLVNKAIQDMISKHHGEDTWEAIKQKAGLEDIDFFVGMEAYSDDVTYHLVGAASEVLGKPAEELLIAFGEYWVTYTSEEGYGELLASAGDSLPEFMENLDNLHARVGLSFPQLRPPAFECQHTSSKSMELHYQSTRCGLAPMVLGLLHGLGKRFQTKVEVTQTAFRETGEDHDIFSIKYEDSNLYDD", "soluble on expression in E. coli": "soluble"}
{"sequence": "MGSDKIHHHHHHMTKVRVAGFGVSLDGFAAGTAQSLDHPLGVRGEEIFQWFFPTRTFRQMLGKEGGDTGLDDRFAQRAMEGFGAFILGRNMFGPVRGEWPDDQWKGWWGDNPPYHAPTFILTHHARPSIEMLGGTTFHFVTGGIEDALEKARKAAGGKDVKIGGGVKTVKQYVQAGYVDEIHLAFAPVALGQGESLFGGLDLRTLGYQTVEHVPTDRATHIVLAK", "soluble on expression in E. coli": "not soluble"}
{"sequence": "MGHHHHHHSHMTSLMDLTLLLARSQPELIEAHTCERIMCCVAQQASEKIDRFRAHAASVFLTLLHFDSPPIPHVPHRGELEKLFPRSDVASVNWSAPSQAFPRITQLLGLPTYRYHVLLGLVVSLGGLTESTIRHSTQSLFEYMKGIQSDPQALGSFSGTLLQIFEDNLLNERVSVPLLKTLDHVLTHGCFDIFTTEEDHPFSVKLLALCKKEIKNSKDIQKLLSGIAVFCEMVQFPGDVRRQALLQLCLLLCHRFPLIRKTTASQVYETLLTYSDVVGADVLDEVVTVLSDTAWDAELAVVREQRNRLCDLLGVPRPQLVPQPGAC", "soluble on expression in E. coli": "not soluble"}
{"sequence": "MDPFKKPVRMLPIKGAPISRPISVFTFDVFNPPDDSDGSSTPDSVFEAETSPARTPPTPALILPYDYVSSEDSDDEAQEHADNRDTNDQVSESSTSEDSDSESESSCDDTQQTFVDDESTSSSGEEDRDDPFESNDQGAQGGSTSESEDDLPAILRAARETQSDSSSDSSGNSHKKRRVQEEESSRILKTPAPISGNGKYNWPWLD", "soluble on expression in E. coli": "soluble"}
{"sequence": "MGKRNLDETMNESTVSEANGDATAPTTEKDEYQALCELVNPIAQPLANRKLAKKVYKLIKKASAGDKTLREGIKDVQKELRRNEKGICILAGNVSPIDVYSHIPGICEEKEIPYVYIPSREQLGLAVGHRRPSILIFVKPSGDFKELYDEVAEALRHLTVEAA", "soluble on expression in E. coli": "not soluble"}
{"sequence": "MSLNNLNTNIDFIKKSPKTELHLHIEGSLEPELMFKLSKRNKIEIPFKSVDEIRSAYNFTNLDSFLKIYYEGSNVLIREEDFFDLTWEYVLRCKQDNIVHTEIFFDPQSHLPRGISFETVINGIDKALKKAEKDFGISSKIIMCFLRHLDEESCFDVLKKAFDHKDKIIGVGLDSSEKGNPPSKFKRLFEQAVKEGFITVAHAGEEGPPEYIWDSLDILKVKRIDHGVQCLNDEKLVNKLVKEQIPLTVCPLSNVKLCVFDKLENHNLKKMLDKGLRVMVNSDDPAYFGGYLNKNLIETSRALNLNLVDIKKLIENSFKSSFLEKEKKENWLKKINEGHHHHHH", "soluble on expression in E. coli": "soluble"}
{"sequence": "MTSRMQPKSGVYSVSKADFTKIFEDVPKVPITSAVDLRNKFDAVRIILSNSSEDWNKRQTQLKTVRSLVIHGEKVVDRPTMIAHLVQLLGCFELAVKDLRSQVLREAAITCSFIVSKYGIETHSIGEDILVPAMSQVAVSTKIMATSASTLTEFIVEYVQTRQVFTILSSFSTSKDKSQRRQLAALLEIVISKWSDRIKKQIMRQICELIKSAINDADSETRAAGRRAFAKLDEMHSEEADALYLELDHSKQKMLRGGDAASSWASVNSEKGSIPIRSKLSAGSKAHMNISAISEKKEGIKKLLPIVADTSLNPIEIKNIGNCLNRLLSDASNTMVLEIYSIFVRTHSSRLSEWLRLALAKLFARKAAETLPNTKKQIGHTLNVILECFNAHHQLVTVCELMCDPIHLMVPKARVVLLEYLTSLLDEYTEPGASINAKELKTAIRKMLTWASDPRLSILLTPHVEKAICSMFCVNVADFSALISDLDSEQKNWIHQTLQRNGLENGISSNNIATNSGATASRETSNTSFQKESTSFGLPEFGARKGGTGVNLGSLNISNNLALSRLEEQSTSRLMEKVNLNSTVTLPPDTLEKIQNVQDLLQKMRSSENADEQESAISSIYMMICDGGFGVWEQCYAKLLLNLFEILSKSRSENNKKMCLRILGKMCTAQAAKLFDSTEMAVCKVLDAAVNTNDATTALAVEDCLRTLATHLPLSNIINIAKVILNQEPIDDERASLVLKMVTRLFEELPAEELNNIVDDITPTIIKAYQSTSSTVRKTVVYCLVAMVNRVGEQRMTPHFTKLPKAMTNLIQVYVNRAISTSLPRL", "soluble on expression in E. coli": "not soluble"}
{"sequence": "AHHHHHHASAKWVCKICGYIYDEDAGDPDNGISPGTKFEELPDDWVCPICGAPKSEFEKLEDGSRFIDANVFIYAILKPKRELNEKELKIKRVSKEIFNRINGGEEVVTTVVHLSEVANVLEDAANLSFAISFLKDVLIKGNVIVEEVSDRDYMESVLLAEEKGVSINDALAYILMKRKGIEEIYTFDRHFENLDVRIVNS", "soluble on expression in E. coli": "soluble"}
{"sequence": "MINNDLLRRISNIFDLTDETILTTFALSQCEISAEQLTNFFKEKDDTAYQPLEDVQFASFLNGLIIAKRGPSDGPERPVEEELTNNMIFNKVKIALSLKAEEVIATLELADLSLGKYELSAFFRNVNNKHYKDCSDEVLSAFLKGLKIKSK", "soluble on expression in E. coli": "not soluble"}
{"sequence": "MLTLLRRGLLVFLAAFPLLSMAAPTPQQVVQGTVDELLSDIKANKAAYKADPQKLYATLDRILGPVVDAEGIAKSVMTVKYSRQASPEQIKRFEEVFKNSLMQFYGNALLEYDNQDIRVLPSSAKPSDDRASVNMEIRDSKGTVYPVSYTMTNLAGGWKVRNVIINGINIGKLFRDQFADTMQKNRNDLEKTIAGWGEVVAKAKETAKAEEAGAKAAALEHHHHHH", "soluble on expression in E. coli": "soluble"}
{"sequence": "MSKPWLFTVHGTGQPDPLGPGLPADTARDVLDIYRWQPIGNYPAAAFPMWPSVEKGVAELILQIELKLDADPYADFAMAGYSQGAIVVGQVLKHHILPPTGRLHRFLHRLKKVIFWGNPMRQKGFAHSDEWIHPVAAPDTLGILEDRLENLEQYGFEVRDYAHDGDMYASIKEDDLHEYEVAIGRIVMKASGFIGGRDSVVAQLIELGQRPITEGIALAGAIIDALTFFARSRMGDKWPHLYNRYPAVEFLRQI", "soluble on expression in E. coli": "soluble"}
{"sequence": "MSLKYYIGLACTGHENALAIVNPDGEIVFAEATERFLQNKRAVNTPPDDPLRIPRLLKQYCSDCDAIVVAKTWSREAPQKMRTDAAHILKALAGTDARTDRDWVARVAFHAGLGDKLIEPNYRLAGNGIERYCSLQGLEHSVRSYEHHLTHAAYACHTSPFDDAVCAVFDGYGEGVHSSYFHYRNGKVEPIRRARSAKGQYGSLASLGLYYGYTICALLGLDIVNGEEWKVMGLAPYGQLNPAFLDVLRRHIYVDGLDLVMDGNAAGTYRELQAFARRPGQSYESVADIAYTAQHYFSELMLEMLAGLRQLGLSDRLVLTGGCALNSTFNGEVIPRSGFAQLYVPPAPSDDGNAVGAALLAYAEDGGAMSRPAFHSPYLGSAIDDRELAPFLKNGAMLGQVPVTPGELCDYVAQELADGKVIGWIQGSAEFGPRSLGNRSILADPRRASMKERINAIVKFREGFRPFAPSILDEFGDRYFEDYSATPYMEKTLKIREAYREAIPAVCHVDHTGRLQTVRRDWNPRFHALLSAFHARTGTPVLLNTSLNVMGKPIVHSAADAFTVFLSTGLDLLVINDHVFSKREGHHHHHH", "soluble on expression in E. coli": "soluble"}
{"sequence": "MSDGQLVQRRRKAEEPVTEKVDEASGDSAQSSDQEDNDKGTRLTLMEQILLLGLKDREGYTSFWNDCISSGLRGCVLIELVLRGRIQLEGGGMRRKNLLNRKVTVKSSEPTGDVILDEALRHMKETNPPETVTSWIEYLSGETWNPLKLRYQLRNVRERLAKNLVEKGVLTTDKQNFLLFEITTHPLSDGNQKTKLIKEVQEAVLGKWTNDVHRMDKKMLSLIVLAHASDVLENAFAPLSDQDYEVKQMLEILFFSGKLAHFEPKNVAMKRVRSLLDLDYDQQAEKKGNDVMWAVFEAFSK", "soluble on expression in E. coli": "soluble"}
{"sequence": "MGSDKIHHHHHHMETREQAKFFHLDEFSGLSLLQASYHRQRFARHVHETFCIGVIEEGVQRFYRTGGEHVAPKGDIILVNADEIHTGSPGVETGWAYRAIYPHPDLMLLLSRDLINANGTVPWFPEAVVHDPGLAEQFRLVFNLLTRDGDRLLKESLLLSSIASLVMRHGRTPAFARELPSVGQPLRIIKDLIASCPEEDYSLTQLAEMAHLSPWHFLRQFKKQVGLPPHAWLIQARLKRARQLLRRGLPIPVVAARCRFSDQSHFNRHFKSSFGITPGEFIRTLPSLSA", "soluble on expression in E. coli": "not soluble"}
{"sequence": "VAVGDVDAPVGLVVFSDYQCPFCAKWSDETLPQMMKHVEDGNLRIEWREVNIFGEPSERGARAAYAAGLQDAYLEYHNALFANGEKPSEDLLSEEGLIKLAGDLGLDESKFTADFQSPETAVAIAQHQQLGIDLGAYSTPAFLLGGQPIMGAQPASVFEAAFEQALAAKE", "soluble on expression in E. coli": "not soluble"}
{"sequence": "MEGTLSFVSGFAPAVYRRELFRHRCVTTAPEARAWPRLGLLRANSGARLSRVDITPEIYKRLVSMAKRTEGNFSAVAGAILESYLTAATNRDLRAVIFDMDGVLCDSERLSRAAGVEYFRRYHGVWPTEKDFADFAGTGEAAFLSGVARRYSVKDFDVNKAKEGFFNIYVNEYVSALEPFEGVREFIQQIKTMGLKTALASSADAIKVHANLSAIGFERDMFDFVTRSDEIANKKPAPDIFLAAAEGLGVPPESCVVIEDAPAGVLAAKRARMRCVAVATSVSAQLLWDAGADIVRPAPQYIMLDDIVITDDADASAPASASQE", "soluble on expression in E. coli": "soluble"}
{"sequence": "NRWGSPWAVKPEDKAKYDAIFDSLSPVNGFLSGDKVKPVLLNSKLPVDILGRVWELSDIDHDGMLDRDEFAVAMFLVYCALEKEPVPMSLPPALVPPSKRKTWLEI", "soluble on expression in E. coli": "soluble"}
{"sequence": "LFTESAKAVLAIAQEEAKYFRHQSVGSEHLLLALVLEPNGIAGKTLRQLNTDTEDIREEIEHLSGYGTMQSPMGNNNLYLPYSPRAKQIFAYAGDEAKRLGAQKIGTEHLLLGLLRDEEILASRILVNLGLSLSKMRQLLLKKMG", "soluble on expression in E. coli": "not soluble"}
{"sequence": "MMCISKLPAVLLILSVALNHLRATPVRSGSNPQMDKRKCNTATCATQRLANFLVRSSNNLGPVLPPTNVGSNTYGKRNAAGDPNRESLDFLLV", "soluble on expression in E. coli": "not soluble"}
